Data: US20220372168A1

Columns and labels:
Human FcγRIIb (human) [1] = molecular target: Human FcγRIIb (human) (UniProt P31994); assay: SPR (Biacore T200), His-tagged FcγR captured on anti-penta-His chip, kinetic or steady-state fit
[2] = molecular target: Human FcγRIIa (R131) (human) (UniProt P12318); assay: as above
[3] = molecular target: Human FcγRIIa (H131) (human) (UniProt P12318); assay: as above
[4] = molecular target: Human FcγRIIIa (V176) (human) (UniProt P08637); assay: SPR (Biacore T200), His-tagged FcγR captured on anti-penta-His chip, antibody injected
Human FcγRIIb (human) [5] = molecular target: Human FcγRIIb (human) (UniProt P31994); assay: as above
[6] = molecular target: Human FcγRIIIa (F176) (human) (UniProt P08637); assay: as above
Human FcγRIIIb (human) = Human FcγRIIIb (human) (UniProt O75015); assay: as above
[7] = molecular target: Human FcγRIIa (R131) (human) (UniProt P12318); assay: as above
[8] = molecular target: Human FcγRIIa (H131) (human) (UniProt P12318); assay: as above
Human FcγRI (human) = Human FcγRI (human) (UniProt P12314); assay: as above
Chain of Human FcγRI (human) (P12314 16-288 limits assumed): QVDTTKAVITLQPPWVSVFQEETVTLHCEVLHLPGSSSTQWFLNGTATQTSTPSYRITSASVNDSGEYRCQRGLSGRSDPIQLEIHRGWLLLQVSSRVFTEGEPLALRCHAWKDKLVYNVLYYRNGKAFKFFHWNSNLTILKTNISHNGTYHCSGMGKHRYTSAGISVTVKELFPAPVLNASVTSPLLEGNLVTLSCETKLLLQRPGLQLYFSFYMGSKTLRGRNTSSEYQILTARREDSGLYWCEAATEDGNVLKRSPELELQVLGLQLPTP

Chain of Human FcγRIIb (human) (P31994 46-217 limits assumed): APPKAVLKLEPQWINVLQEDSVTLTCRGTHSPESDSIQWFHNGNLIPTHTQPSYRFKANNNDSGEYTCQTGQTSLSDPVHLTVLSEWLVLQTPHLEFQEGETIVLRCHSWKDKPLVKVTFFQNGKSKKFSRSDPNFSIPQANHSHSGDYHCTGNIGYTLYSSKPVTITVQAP
Chain of Human FcγRIIa (R131) (human) (P12318 36-218 H167R limits assumed): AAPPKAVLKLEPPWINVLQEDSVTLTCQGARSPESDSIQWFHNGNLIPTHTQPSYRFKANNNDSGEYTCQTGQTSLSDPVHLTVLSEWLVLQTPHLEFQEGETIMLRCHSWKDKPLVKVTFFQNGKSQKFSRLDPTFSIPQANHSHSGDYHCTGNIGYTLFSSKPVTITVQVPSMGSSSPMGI
Chain of Human FcγRIIa (H131) (human) (P12318 36-218 limits assumed): as the sequence (P12318 36-218 H167R limits assumed) above, with R132H counted along it
Chain of Human FcγRIIIa (V176) (human) (P08637 17-208 F176V limits assumed): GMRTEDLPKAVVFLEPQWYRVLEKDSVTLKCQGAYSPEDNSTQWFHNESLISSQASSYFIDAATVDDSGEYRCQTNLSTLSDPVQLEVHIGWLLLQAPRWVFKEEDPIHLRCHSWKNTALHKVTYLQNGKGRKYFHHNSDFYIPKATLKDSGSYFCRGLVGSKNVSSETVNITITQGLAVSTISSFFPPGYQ
Chain of Human FcγRIIIa (F176) (human) (P08637 17-208 limits assumed): as the sequence (P08637 17-208 F176V limits assumed) above, with V160F counted along it
Chain of Human FcγRIIIb (human) (O75015 17-200 limits assumed): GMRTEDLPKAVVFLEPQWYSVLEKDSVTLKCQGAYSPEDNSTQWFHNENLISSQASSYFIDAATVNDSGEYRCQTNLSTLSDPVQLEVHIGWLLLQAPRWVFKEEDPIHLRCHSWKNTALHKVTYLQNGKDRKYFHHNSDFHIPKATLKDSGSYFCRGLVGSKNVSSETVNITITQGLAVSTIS

B1: mAb3 (antibody, part only; not given: variable domains, not shown: another chain or arm of the molecule)
Fc: ESKYGPPCPPCPAPPVAGPSVFLFPPKPKDTLMISRTPEVTCVVVDVSQEDPEVQFNWYVDGVEVHNAKTKPREEQFNSTYRVVSVLTVLHQDWLNGKEYKCKVSNKGLPSSIEKTISKAKGQPREPQVYTLPPSQEEMTKNQVSLTCLVKGFYPSDIAVEWESNGQPENNYKTTPPVLDSDGSFFLYSRLTVDKSRWQEGNVFSCSVMHEALHNHYTQKSLSLSLGK
Kd (Human FcγRIIb (human) [1]): 12300 nM
Kd [2]: 1320 nM
Kd [3]: 1610 nM
binding signal (RU) [4]: 34 RU
binding signal (RU) (Human FcγRIIb (human) [5]): 226 RU
binding signal (RU) [6]: 6 RU
binding signal (RU) (Human FcγRIIIb (human)): -8 RU
binding signal (RU) [7]: 340 RU
binding signal (RU) [8]: 419 RU
binding signal (RU) (Human FcγRI (human)): 36 RU
